According to US12459987B2, “Monoclonal antibodies for prevention and treatment of herpes simplex viral infections” (priority 2019, dated 2025):
Entries after “also recorded” stand apart in the source; their conditions may differ.

How the values were obtained:
[1] = tested on: HSV-2 G infected cell lysates; test: ELISA binding of recombinant antibodies to HSV-2 G infected cell lysates; parameters: species or system HSV-2 G strain
Experimental: Binding of recombinant antibodies to HSV-2 G lysates was tested by ELISA. Both heavy and light chain V(D)J rearrangements were amplified from selected single B-cell culture wells (22D10, 32H6, 33B8, and 35H7) by standard RT-PCR. These cloned V(D)J rearrangements were introduced into expression vectors. Recombinant antibodies were obtained by co-transfection of these expression vectors into Expi293F cells. ≥4 mg of purified IgGs was obtained (not shown). […]
Briefly, mice were vaccinated with ΔgD-2 and then 16 days after vaccination, the draining, inguinal lymph nodes were harvested. GC B cells were isolated from these tissues and were cultured in Nojima cultures. Although overall cloning efficiency of GC B cells from these (shipped) tissues was lower than those from freshly isolated tissues (6% vs. 20%), 50 GC clones were obtained that were specific to HSV-2 G strain (HSV-2 G or HSV2-G) lysate. GC B cells from inguinal lymph nodes of mice vaccinated with ΔgD-2 were sorted directly into 96-well plates (1 cell/well). These GC B cells were then cultured in the presence of NB-21.2D9 feeder cells. After culture, presence of IgG was first determined by ELISA, and then the reactivity of culture supernatant IgG against HSV-2 G lysates (HSV-2 G) and uninfected Vero lysates were tested by ELISA.
Based on the obtained V(D)J sequences from each B-cell culture, paired heavy and light chains were re-expressed (as recombinant mouse IgG1 and IgG2c antibodies) in Expi293F cells (Kuraoka et al. Immunity 2016; DiLillo et al. Nature Medicine 2013). […] As expected, all recombinant antibodies reacted specifically with HSV-2 G lysates (FIG. 3). […] Binding of recombinant antibodies to HSV-2 G lysates was tested by ELISA. Both heavy and light chain V(D)J rearrangements were amplified from selected single B-cell culture wells (22D10, 32H6, 33B8, and 35H7) by standard RT-PCR. These cloned V(D)J rearrangements were introduced into expression vectors. Recombinant antibodies were obtained by co-transfection of these expression vectors into Expi293F cells. ≥4 mg of purified IgGs was obtained (not shown). […] These recombinant antibodies (≥4 mg each) were tested for identification of reacting antigen(s), in an in vitro FcγRIV activation assay (Promega FcγRIV ADCC Reporter Bioassay)(FIG. 4), and in vivo protection assay. […]

HSV-2 = test: Passive transfer in vivo protection assay, lethal HSV-2 challenge; parameters: species or system mice
Experimental: Mice were prime-boost immunized with ΔgD-2 and the spleens, draining lymph nodes or bone marrow were isolated. Germinal center (GC) B cells were then cultured on NB-21.2D9 cells (Nojima cultures). After culture, supernatants were screened for the presence of HSV-lysate binding IgG by ELISA. The V(D)J rearrangements amplified from selected GC B-cell cultures for the B-cell antigen receptor (BCR) repertoire analysis in GC B cell clones among individual mice were sequenced. Then, reconstituted antibodies from selected single GC B cell cultures and from single, bone marrow plasmacytes were evaluated for ability to activate the mFcγRIV in vitro and to protect mice in a passive transfer model.
Both IgG1 and IgG2c forms of 22D10, 33B8, and BMPC-23 antibodies (≥4 mg each) were assessed for reproducibility of in vivo protection assay, and any dependency on Ig isotype for protection. […] To test roles of Ig isotypes on ability to provide protection, IgG1 and IgG2c isotypes of these three antibodies were generated and assessed for ability to activate mFcγRIV signaling (as a measurement for ADCC), and for in vivo protection assay.

[2] = target: human herpesvirus glycoprotein B (gB) (Human herpesvirus 2, UniProt P08666); test: Immunoprecipitation-Mass Spectrometry (IP-MS) target identification; format: binding
Experimental: FIG. 7A-7B. Immunoprecipitation-Mass Spectrometry (IP-MS) was performed to identify the binding targets of 22D10, 33B8, and BMPC-23 antibodies.
IP-MS was performed to identify the targets of 22D10, 33B8, and BMPC-23 antibodies.

uninfected Vero lysate = test: ELISA binding to control uninfected Vero lysate
Experimental: Binding of recombinant antibodies to HSV-2 G lysates was tested by ELISA. Both heavy and light chain V(D)J rearrangements were amplified from selected single B-cell culture wells (22D10, 32H6, 33B8, and 35H7) by standard RT-PCR. These cloned V(D)J rearrangements were introduced into expression vectors. Recombinant antibodies were obtained by co-transfection of these expression vectors into Expi293F cells. ≥4 mg of purified IgGs was obtained (not shown).
Based on the obtained V(D)J sequences from each B-cell culture, paired heavy and light chains were re-expressed (as recombinant mouse IgG1 and IgG2c antibodies) in Expi293F cells (Kuraoka et al. Immunity 2016; DiLillo et al. Nature Medicine 2013). […] As expected, all recombinant antibodies reacted specifically with HSV-2 G lysates (FIG. 3). […] Binding of recombinant antibodies to HSV-2 G lysates was tested by ELISA. Both heavy and light chain V(D)J rearrangements were amplified from selected single B-cell culture wells (22D10, 32H6, 33B8, and 35H7) by standard RT-PCR. These cloned V(D)J rearrangements were introduced into expression vectors. Recombinant antibodies were obtained by co-transfection of these expression vectors into Expi293F cells. ≥4 mg of purified IgGs was obtained (not shown). […]

[3] = target: glycoprotein B of HSV-1 (gB-1) (Human herpesvirus 1, UniProt P10211); test: Luminex multiplex assay, binding to gB-1; settings: Table 3 summary
Experimental: FIGS. 9A and 9B are graphs of median fluorescence intensity (MFI) versus IgG concentration (ng/ml), showing the binding of various recombinant antibodies to gB-1 as measured by Luminex multiplex assay.
BMPC-23 binds HSV-1 gB (gB-1). The gB-1 binding of the antibodies was determined by Luminex multiplex assay. Mixtures of antigen (gB-1)-conjugated microspheres (1,000 counts each) were added to each well of 96-well filter plates (Millipore). After washing with PBS containing 1% BSA, 0.05% Tween 20 and 0.05% NaN3, serially diluted recombinant antibodies (5E7, 19G7, 18G4, 22E10, 3A2, 17G3, 22D10, 32H6, 33B8, 25H7, BMPC-23, and S5V2-29) were added to the plates and incubated for 2 hours at room temperature, with mild agitation of the plates. Samples were diluted in PBS containing 1% cow milk, 1% BSA, 0.05% Tween 20 and 0.05% NaN3. After washing, PE goat anti-mouse IgG was added to the plates and incubated for 1 hour at room temperature with mild agitation. After washing, microspheres were resuspended in PBS containing 1% BSA, 0.05% Tween 20 and 0.05% NaN3 and fluorescent signals from each microsphere were measured in a Bio-Plex® 3D machine.
Finding gB-1 specific HSV antibodies. After Nojima culture (single B-cell culture), HSV-specific antibodies were cloned from germinal center B cells and tested for binding to HSV-1 gB-1 by Luminex multiplex assay as described above. FIGS. 9A and 9B show the gB-1 binding results for 10 antibodies in comparison with BMPC-23. With the exception of BMPC-23, the antibodies in Table 3 were derived from germinal center B cells (lymph nodes) taken 15-17 days after primary vaccination with ΔgD-2. BMPC-23 was derived from bone marrow plasmacytes taken 2 weeks post-boost with ΔgD-2. Nucleotide sequences and amino acid sequences for the heavy-chains and light chains are shown in Table 4, as are the amino acid sequences for the light chain and heavy chain CDR1, CDR2, and CDR3.

B1: 33B8: monoclonal antibody from germinal center B cell; IgH SEQ ID NO: 28, IgL SEQ ID NO: 30 (antibody, V domains shown)
VH: EVKLVESGGGLVQPGGSLSLSCATSGFTFTDYYMNWVRQPPGKALEWLGFIRNKANGYTTEYSASVKGRFTISRDNSQSILYLQMNSLRAEDSATYYCACGNYVGYAMDYWGQGTSVTVSSA
VL: DIVMSQSPSSLAVSAGEKVTMSCKSSQSLLNSRTRKNYLAWYQQKPGQSPKLLIYWASTRESGVPDRFTGSGSGTDFTLTISSVQAEDLAVYYCKQSYNLYTFGGGTKLEIKR
modifications: 33B8 heavy chain; 33B8 light chain
[1]; ELISA, recombinant antibodies expressed in Expi293F cells
  Binding of recombinant antibodies to HSV-2 G lysates: Retention of HSV-2 G lysate-binding
[1]; Table 3 summary
  Binding to HSV-lysate: Yes
HSV-2; IgG2c version, overall results from 2 independent experiments, passive transfer
  Mice protected from lethal challenge: 4/10
HSV-2; Table 3 summary
  in vivo protection: Yes
HSV-2; as IgG2c, passive transfer, overall survival, epithelial and neurological assays
  Protection against lethal HSV-2 challenge: significant protection; also recorded: provides protection
[2]
  Binding target identified by IP-MS: human herpesvirus glycoprotein B (gB)
Uninfected Vero lysate
  Binding to control, uninfected Vero lysate: did not bind
[3]
  Target antigens: (not gB)
